The target in assay [1] is HLA-A*02:01. Description: IEDB peptide-MHC binding, purified MHC/competitive/fluorescence; ≥ and ≤ were set here for values at or beyond the usual limits of such assays.
Assay [2] addresses HLA-B*58:01. Kind of assay: IEDB peptide-MHC binding, purified MHC/direct/fluorescence; filed as Kd, often an IC50 or EC50 that approximates it; ≥ and ≤ were set here for values at or beyond the usual limits of such assays.
For assay [3], the target named is HLA-B*15:01. The description is as above.
Assay [4] addresses HLA-B*07:02. The assay is described as above. The settings on record: source organism: Homo sapiens.
Assay [5] deals with HLA-A*02:01. Description: IEDB peptide-MHC binding, purified MHC/competitive/fluorescence; filed as Kd, often an IC50 or EC50 that approximates it; ≥ and ≤ were set here for values at or beyond the usual limits of such assays. The settings on record: source organism: Bacillus cereus G9241.
In assay [6] the target is HLA-A*30:01. Kind of assay: IEDB peptide-MHC binding, purified MHC/competitive/radioactivity; filed as Kd, often an IC50 or EC50 that approximates it; ≥ and ≤ were set here for values at or beyond the usual limits of such assays.
Assay [7] has as its target HLA-A*24:02. Described as above. The settings on record: source organism: Dengue virus 3 Martinique/1243/1999.
For assay [8], the target named is HLA-A*26:01. Kind of assay: IEDB peptide-MHC binding, purified MHC/direct/fluorescence; filed as Kd, often an IC50 or EC50 that approximates it; ≥ and ≤ were set here for values at or beyond the usual limits of such assays. The settings on record: source organism: Mycobacterium tuberculosis.
For assay [9], the target named is HLA-A*69:01. The description is as above.
Assay [10] has as its target HLA-A*30:02. Kind of assay: IEDB peptide-MHC binding, purified MHC/competitive/radioactivity; filed as Kd, often an IC50 or EC50 that approximates it; ≥ and ≤ were set here for values at or beyond the usual limits of such assays. The settings on record: source organism: Dengue virus 4 Philippines/H241/1956.
The target of assay [11] is HLA-A*26:01. Described as above.
The target of assay [12] is HLA-A*01:01. Description: IEDB peptide-MHC binding, purified MHC/direct/fluorescence; filed as Kd, often an IC50 or EC50 that approximates it; ≥ and ≤ were set here for values at or beyond the usual limits of such assays. The conditions noted are these: source organism: Yersinia pestis.
Assay [13] deals with HLA-A*02:01. The assay is described as above.
In assay [14] the target is HLA-B*40:01. Described as above. The settings on record: source organism: Mycobacterium tuberculosis.
Assay [15] has as its target HLA-A*03:01. Description: IEDB peptide-MHC binding, purified MHC/competitive/radioactivity; filed as Kd, often an IC50 or EC50 that approximates it; ≥ and ≤ were set here for values at or beyond the usual limits of such assays. The settings on record: source organism: Dengue virus 1 Brazil/97-11/1997.
Assay [16] has as its target HLA-A*03:01. Kind of assay: IEDB peptide-MHC binding, purified MHC/direct/fluorescence; filed as Kd, often an IC50 or EC50 that approximates it; ≥ and ≤ were set here for values at or beyond the usual limits of such assays.
The target in assay [17] is HLA-A*11:01. Described as above. The conditions noted are these: source organism: SARS-CoV1.
Assay [18] addresses HLA-B*27:05. The assay is described as above. The settings on record: source organism: SARS-CoV1.
Setting [19] is: source organism: Zaire ebolavirus.
[20] abbreviates: source organism: Vaccinia virus WR.
Where [21] appears, read: source organism: Dengue virus 2 Jamaica/1409/1983.
[22] abbreviates: source organism: Dengue virus 1 Brazil/97-11/1997.
[23] abbreviates: source organism: Giardia lamblia ATCC 50803.
The mark [24] stands for this setting: source organism: Mycobacterium tuberculosis.
The mark [25] stands for this setting: source organism: Francisella tularensis subsp. holarctica LVS.
Where [26] appears, read: source organism: Human immunodeficiency virus 1.
[27] abbreviates: source organism: Sudan ebolavirus.
Setting [28] is: source organism: Yersinia pestis.

IC50 and Kd data for 47 sequences are collected here from the Immune Epitope Database (IEDB).

Bounds are passed on as bounds.

As usually defined, the IC50 is the concentration that gives 50% inhibition. Broadly, the Kd is the free concentration of one partner at which half of the binding sites on the other are occupied at equilibrium, for simple one-to-one binding.

In the case of TSSDPGTNT, in assay [1] (setting [19]), the IC50 is at least 251 µM. VGYVDDTQF: the results for the Kd in assay [2] (source organism: Homo sapiens), in assay [3] (source organism: Homo sapiens) and in [4] were 210 nM, 572 nM and 6.18 µM, respectively.

With YGLVSKFMS, the IC50 in assay [1] (setting [20]) is 25.6 µM. TVVPLMAFL: in assay [5], the Kd turned out to be 48.5 nM. For the sequence HLSNSFFIK, in [6] (setting [20]), the Kd is 17.3 nM. For the sequence LFVVTLIPLC, the Kd in [6] (source organism: Dengue virus 4 Philippines/H241/1956) was determined as 414 nM. In assay [1] (setting [19]), MNAPDDLVL registered an IC50 of at least 162 µM. With KHMIAGVFF, the Kd in assay [7] was 837 nM. On to RIRQGKFIK, for which the Kd in [6] (setting [20]) turned out to be 4.79 nM. On to EVSTAIAAL, for which, in assay [8], the Kd was 12.2 nM. With FSYGTLIID, in [1] (source organism: Variola virus), the IC50 is at least 283 µM. Consider GVFPVSIPIT, for which the Kd in assay [6] (setting [21]) came to 7360 nM. Take NASQHPQQV: the Kd in assay [9] (source organism: Salmonella enterica subsp. enterica serovar Typhimurium) came to 571 nM. In the case of QKATLTEGVY, the Kd in assay [10] was 15.6 nM. In the case of TGVGKTSQV, the IC50 in assay [1] (source organism: Variola virus) came out at 36.1 µM. Take YVVIGLLFM: the Kd in [11] (setting [22]) is 12.5 µM. As for GRLITANPIV, the Kd in [6] (setting [22]) was at least 57100 nM.

On to AINGFVLPK, for which, in assay [12], the Kd is at least 20 µM.

On to YFLESNFFI, for which the values for the Kd in assay [9] (setting [23]) and in [13] (setting [23]) were 2.2 nM and 0.6 nM, respectively. Turning to HIFYQLANV, the equilibrium dissociation constant (Kd) in assay [6] (setting [20]) is 60.4 nM. On the same count and under the same terms, to KQSQSYLTK belongs 158 nM. Take VLPPEINSL: in assay [13] (setting [24]), the Kd came out at 71.4 nM. As for DEAHFTDPAS, the Kd in assay [6] (setting [21]) came out at 13900 nM.

In the case of FTLDADLGI, the dissociation constant Kd in assay [9] (setting [25]) stood at 2.2 nM; in assay [13] (setting [25]) it was 8.2 nM. As for HVYDFEPYY, the Kd in assay [6] (setting [20]) stood at 27.4 nM. HKIMASENS displayed a 50% inhibitory concentration (IC50) in assay [1] (setting [19]) of at least 253 µM.

For NANPDCKTI, the Kd in assay [9] (setting [26]) was determined as 7640 nM; in assay [2] (setting [26]), 9310 nM.

Take FSTLDKITD: the IC50 in [1] (source organism: Variola virus) came out at 53.6 µM. In assay [1] (setting [27]), NLHYWTAQE yielded an IC50 of at least 189 µM.

For LEYDGFADF, the Kd in assay [14] is 42.4 nM. In turn, DTGEESASS yielded an IC50 in [1] (setting [19]) of at least 425 µM. Take LARWSSFKK: the Kd was determined as 171 nM in [15] and 6.79 nM in assay [6] (setting [22]).

Take NQDGLICGL: the IC50 in assay [1] (setting [19]) amounted to 28.4 µM. Consider HAVYSIVFV, for which, in assay [6] (setting [20]), the dissociation constant Kd came to 591 nM. Sequence TLFKIDNNT returned an IC50 in [1] (setting [27]) of 18.7 µM. In assay [1] (setting [27]), FIDNPLPNQ had an IC50 of 28.1 µM. SNGLITSTV registered an IC50 in [1] (setting [27]) of 60.4 µM.

On to GSRVRNIIA, for which, in assay [6] (setting [20]), the Kd turned out to be 8.85 nM. Regarding RLVDSIGSW, the equilibrium dissociation constant (Kd) in [2] (source organism: Influenza A virus (A/swine/IDT/Bakum1832/2000(H1N2))) turned out to be 128 nM. As to FLEQGGFKA, the Kd in [9] (setting [28]) came to 1990 nM; in [13] (setting [28]) it was 64.3 nM. Take EIPLQWIASA: the Kd in assay [11] (source organism: Dengue virus 3 Martinique/1243/1999) worked out at 2.62 µM. The sequence QLSDHPMVK had a Kd in assay [16] (source organism: Vibrio parahaemolyticus) of 146 nM.

Consider RLDGTTLEV, for which the IC50 in assay [1] (source organism: Mycobacterium leprae) worked out at 0.035 µM. For the sequence IPLGVIHNS, the IC50 in assay [1] (setting [19]) is at least 185 µM.

Consider YVGDLCGSV, for which, in assay [1] (source organism: Hepatitis C virus genotype 1), the IC50 was at least 50 µM. Take VLQQVSNGV: the Kd in [9] (setting [24]) is at least 20000 nM. With KMKELSPRW, the Kd in [2] (source organism: SARS-CoV1) was 420 nM; in assay [16] (source organism: SARS-CoV1), 5750 nM; in assay [17], at least 30.2 µM; in assay [18], 5.25 µM; in assay [3] (source organism: SARS-CoV1) it was 1200 nM.
